Source: patent US12723255B2, “Herbicide tolerance genes and methods of use thereof” (priority 2014, dated 2026)

Key:
Format in all cases: in vivo
transgenic maize plants = assay: trait efficacy field trials with homozygous inbred plants, CTP evaluation; conditions: crop injury percentage
From the text: To evaluate different chloroplast targeting peptides (CTP), plant transformation vectors were constructed, each comprising a recombinant DNA molecule optimized for monocot expression and encoding MON-HTI (SEQ ID NO: 16), MON-HT2 (SEQ ID NO:20), and MON-HT8 (SEQ ID NO:39), MON-HT9 (SEQ ID NO:42), or MON-HT10 (SEQ ID NO:45). The vectors were created using the same combination of promoter, leader, intron, and 3′-UTR, but with one of three separate CTPs (A, B, or C) or without a CTP operably linked to the protein-coding sequence. The DNA constructs were used to transform immature maize (LH244) embryos using Agrobacterium tumifaciens and standard methods known in the art. Regenerated RO transgenic plantlets were grown in the green house. The R0 plants were selfed to generate R1 homozygous seed. The R0 plants were also used as the male to cross with inbred plants containing maize event MON89034 to generate segregating F1 hybrid seed for trait efficacy field trials.
Separate trait efficacy field trials for quizalofop-P and 2,4-D were conducted at two locations each with the homozygous inbred transgenic plants (R2 or R4 generation). In these field trials, one of two herbicide treatments was used: (1) quizalofop-P (Assure II) at 0.16 lb ai/acre (2×) plus 0.25% v/v non-ionic surfactant (NIS) applied at V4 growth stage followed by the same at V8 growth stage; or (2) 2,4-D amine at 2 lb ae/acre (2×) plus 0.25% v/v non-ionic surfactant (NIS) applied to V4 followed by V8. Injury ratings (crop injury percentage at V4 (CIPV4) or V8 (CIPV8)) were taken 10 to 14 days after the V4 and V8 applications. Error was calculated using LSD (0.05).

F1 hybrid maize plants [1] = assay: trait efficacy field trial, quizalofop-P pressure screening, F1 hybrid; conditions: crop injury percentage; for 4X Qizalofop-P CIPV4 / 4X Qizalofop-P CIPV8: 0.32 lb ai/acre at VE-V2, V4, V8; for 8X Qizalofop-P CIPV4 / 8X Qizalofop-P CIPV8: 0.64 lb ai/acre at VE-V2, V4, V8; for 16X Qizalofop-P CIPV4 / 16X Qizalofop-P CIPV8: 1.28 lb ai/acre at VE-V2, V4, V8
Protocol: (§1) Separate trait efficacy field trials for quizalofop-P and 2,4-D pressure screening were conducted at one location each with F1 hybrid transgenic plants produced by crossing an inbred plant containing maize event MON89034 with an R1 plant containing MON-HT1, MON-HT2, MON-HT8, MON-HT9, and MON-HT10 with and without operably linked CTP sequences. Transgenic F1 hybrid plants containing maize events NK603×MON89034 were used for comparison as a control.
In the trait efficacy field trial for quizalofop-P tolerance, one of three herbicide treatments was used: (1) quizalofop-P (Assure II) at 0.32 lb ai/acre (4×) plus 0.25% v/v non-ionic surfactant (NIS) applied at VE-V2 growth stage followed by the same at V4 growth stage followed by the same at V8 growth stage; (2) quizalofop-P at 0.64 lb ai/acre (8×) plus 0.25% v/v NIS applied at VE-V2 growth stage followed by the same at V4 growth stage followed by the same at V8 growth stage; or (3) quizalofop-P at 1.28 lb ai/acre (16×) plus 0.25% v/v NIS applied at VE-V2 growth stage followed by the same at V4 growth stage followed by the same at V8 growth stage. Plots were visually rated as above. […] The injury rating for the control plants after all quizalofop-P application was 100%. Error was calculated using LSD (0.05).

F1 hybrid maize plants [2] = assay: trait efficacy field trial, 2,4-D pressure screening, F1 hybrid; conditions: crop injury percentage; for 4X 2,4-D CIPV4 / 4X 2,4-D CIPV8: 4 lb ae/acre at VE-V2, V4, V8; for 8X 2,4-D CIPV4 / 8X 2,4-D CIPV8: 8 lb ae/acre at VE-V2, V4, V8; for 16X 2,4-D CIPV4 / 16X 2,4-D CIPV8: 16 lb ae/acre at VE-V2, V4, V8
Protocol: as §1
Three herbicide treatments were used in the trait efficacy field trial for 2,4-D tolerance: (1) 2,4-D amine at 4 lb ac/acre (4×) plus 0.25% v/v NIS applied to VE-V2 followed by V4 followed by V8; (2) 2,4-D amine at 8 lb ac/acre (8×) plus 0.25% v/v NIS applied to VE-V2 followed by V4followed by V8 maize; or (3) 2,4-D amine at 16 lb ac/acre (16×) plus 0.25% v/v NIS applied to VE-V2 followed by V4 followed by V8. Plots were visually rated as above.
The injury rating for the control plants after all 2,4-D applications ranged from 80% to 96.25%. At the highest rate of 2,4-D (16×) applied through V8, the plants containing MON-HT1 or MON-HT2 operably linked to any of the three CTPs (A, B, or C) had better tolerance than plants containing MON-HT1 or MON-HT2 not operably linked to a CTP. Plants containing MON-HT1, MON-HT2, or MON-HT8 with or without an operably linked CTP had better tolerance to 2,4-D at all applications tested compared to plants containing either MON-HT9 or MON-HT10 with an operably linked ‘A’ CTP. Over the range of 2,4-D applications the relative ranking of tolerance was: plants containing MON-HT1 had better tolerance than plants containing MON-HT2 which were in turn better than plants containing MON-HT8. […] Error was calculated using LSD (0.05).

[3] = CTP A, 0.16 lb ai/acre at V4, V8, LSD (0.05) = 1.45
[4] = CTP A, 0.16 lb ai/acre at V4, V8, LSD (0.05) = 2.2
[5] = CTP A, 2 lb ae/acre at V4, V8, LSD (0.05) = 0.95
[6] = CTP A, 2 lb ae/acre at V4, V8, LSD (0.05) = 1.6
[7] = CTP B, 0.16 lb ai/acre at V4, V8
[8] = CTP C, 0.16 lb ai/acre at V4, V8
[9] = no CTP, 0.16 lb ai/acre at V4, V8

B1: MON-HT10: engineered oxygenase protein, amino acid sequence SEQ ID NO:43 (protein)
chain: MHAALTPLTNKYRFIDVQPLCGVLGAEITGVDLREPLDDSTWNEILDAFHTYQVIYFPGQAITNEQHIAFSRRFGPVDPVPLLKSIEGYPEVQMIRREANESGRILGDDWHTDSTFLDAPPAAVVMRAIEVPEYGGDTGFLSMYSAWDTLSDTMKATIEGLNVVHSATRVFGSLYQAQNWRFSNTSVKVMDVDAGDRETVHPLVVSHPVTGRRALYCNQVYCQRIEGMTDAESKCLLQFLYEHATKFDFTCRVRWKKDQVLVWDNLCTMHLAVPDYDGKFRYLTRTTVAGDKPSR
2X Quizalofop-P CIPV4 (transgenic maize plants; [3]): 0
2X Quizalofop-P CIPV8 (transgenic maize plants; [4]): 0
2X 2,4-D CIPV4 (transgenic maize plants; [5]): 0
2X 2,4-D CIPV8 (transgenic maize plants; [6]): 1.25
4X Qizalofop-P CIPV4 (F1 hybrid maize plants [1]; CTP A): 0
4X Qizalofop-P CIPV8 (F1 hybrid maize plants [1]; CTP A): 5
8X Qizalofop-P CIPV4 (F1 hybrid maize plants [1]; CTP A): 2.5
8X Qizalofop-P CIPV8 (F1 hybrid maize plants [1]; CTP A): 10
16X Qizalofop-P CIPV4 (F1 hybrid maize plants [1]; CTP A): 5
16X Qizalofop-P CIPV8 (F1 hybrid maize plants [1]; CTP A): 21
4X 2,4-D CIPV4 (F1 hybrid maize plants [2]; CTP A): 32.5
4X 2,4-D CIPV8 (F1 hybrid maize plants [2]; CTP A): 70
8X 2,4-D CIPV4 (F1 hybrid maize plants [2]; CTP A): 55
8X 2,4-D CIPV8 (F1 hybrid maize plants [2]; CTP A): 87.5
16X 2,4-D CIPV4 (F1 hybrid maize plants [2]; CTP A): 45
16X 2,4-D CIPV8 (F1 hybrid maize plants [2]; CTP A): 90

B2: MON-HT2: engineered oxygenase protein, amino acid sequence SEQ ID NO:18 (protein)
chain: MHAALTPLTNKYRFIDVQPLTGVLGAEITGVDLREPLDDSTWNEILDAFHTYQVIYFPGQAITNEQHIAFSRRFGPVDPVPLLKSIEGYPEVQMIRREANESSRVIGDDWHSDSTFLDAPPAAVVMRAIEVPEYGGDTGFLSMYSAWETLSPTMQATIEGLNVVHSATKVFGSLYQATNWRFSNTSVKVMDVDAGDRETVHPLVVTHPVTGRRALYCNQVYCQKIQGMTDAESKSLLQFLYEHATKFDFTCRVRWKKDQVLVWDNLCTMHRAAPDYAGKFRYLTRTTVAGDKPSR
2X Quizalofop-P CIPV4 (transgenic maize plants; [3]): 0
2X Quizalofop-P CIPV8 (transgenic maize plants; [4]): 1.875
2X 2,4-D CIPV4 (transgenic maize plants; [5]): 0.875
2X 2,4-D CIPV8 (transgenic maize plants; [6]): 1.25
2X Quizalofop-P CIPV4 (transgenic maize plants; [7]): 0
2X Quizalofop-P CIPV8 (transgenic maize plants; [7]): 0
2X 2,4-D CIPV4 (transgenic maize plants; CTP B, 2 lb ae/acre at V4, V8): 0
2X 2,4-D CIPV8 (transgenic maize plants; CTP B, 2 lb ae/acre at V4, V8): 2.5
2X Quizalofop-P CIPV4 (transgenic maize plants; [8]): 0
2X Quizalofop-P CIPV8 (transgenic maize plants; [8]): 2
2X 2,4-D CIPV4 (transgenic maize plants; CTP C, 2 lb ae/acre at V4, V8): 0
2X 2,4-D CIPV8 (transgenic maize plants; CTP C, 2 lb ae/acre at V4, V8): 1.25
2X Quizalofop-P CIPV4 (transgenic maize plants; [9]): 1.25
2X Quizalofop-P CIPV8 (transgenic maize plants; [9]): 3.5
2X 2,4-D CIPV4 (transgenic maize plants; no CTP, 2 lb ae/acre at V4, V8): 0
2X 2,4-D CIPV8 (transgenic maize plants; no CTP, 2 lb ae/acre at V4, V8): 2.5
4X Qizalofop-P CIPV4 (F1 hybrid maize plants [1]; CTP A): 0
4X Qizalofop-P CIPV8 (F1 hybrid maize plants [1]; CTP A): 5
8X Qizalofop-P CIPV4 (F1 hybrid maize plants [1]; CTP A): 2.5
8X Qizalofop-P CIPV8 (F1 hybrid maize plants [1]; CTP A): 7.5
16X Qizalofop-P CIPV4 (F1 hybrid maize plants [1]; CTP A): 5
16X Qizalofop-P CIPV8 (F1 hybrid maize plants [1]; CTP A): 15
4X Qizalofop-P CIPV4 (F1 hybrid maize plants [1]; CTP B): 0
4X Qizalofop-P CIPV8 (F1 hybrid maize plants [1]; CTP B): 5
8X Qizalofop-P CIPV4 (F1 hybrid maize plants [1]; CTP B): 0
8X Qizalofop-P CIPV8 (F1 hybrid maize plants [1]; CTP B): 10
16X Qizalofop-P CIPV4 (F1 hybrid maize plants [1]; CTP B): 0
16X Qizalofop-P CIPV8 (F1 hybrid maize plants [1]; CTP B): 20
4X Qizalofop-P CIPV4 (F1 hybrid maize plants [1]; CTP C): 0
4X Qizalofop-P CIPV8 (F1 hybrid maize plants [1]; CTP C): 5
8X Qizalofop-P CIPV4 (F1 hybrid maize plants [1]; CTP C): 5
8X Qizalofop-P CIPV8 (F1 hybrid maize plants [1]; CTP C): 12.5
16X Qizalofop-P CIPV4 (F1 hybrid maize plants [1]; CTP C): 12.5
16X Qizalofop-P CIPV8 (F1 hybrid maize plants [1]; CTP C): 20
4X Qizalofop-P CIPV4 (F1 hybrid maize plants [1]; no CTP): 35
4X Qizalofop-P CIPV8 (F1 hybrid maize plants [1]; no CTP): 45
8X Qizalofop-P CIPV4 (F1 hybrid maize plants [1]; no CTP): 50
8X Qizalofop-P CIPV8 (F1 hybrid maize plants [1]; no CTP): 37.5
16X Qizalofop-P CIPV4 (F1 hybrid maize plants [1]; no CTP): 70
16X Qizalofop-P CIPV8 (F1 hybrid maize plants [1]; no CTP): 55
4X 2,4-D CIPV4 (F1 hybrid maize plants [2]; CTP A): 5
4X 2,4-D CIPV8 (F1 hybrid maize plants [2]; CTP A): 5
8X 2,4-D CIPV4 (F1 hybrid maize plants [2]; CTP A): 10
8X 2,4-D CIPV8 (F1 hybrid maize plants [2]; CTP A): 7.5
16X 2,4-D CIPV4 (F1 hybrid maize plants [2]; CTP A): 10
16X 2,4-D CIPV8 (F1 hybrid maize plants [2]; CTP A): 20
4X 2,4-D CIPV4 (F1 hybrid maize plants [2]; CTP B): 5
4X 2,4-D CIPV8 (F1 hybrid maize plants [2]; CTP B): 5
8X 2,4-D CIPV4 (F1 hybrid maize plants [2]; CTP B): 5
8X 2,4-D CIPV8 (F1 hybrid maize plants [2]; CTP B): 10
16X 2,4-D CIPV4 (F1 hybrid maize plants [2]; CTP B): 10
16X 2,4-D CIPV8 (F1 hybrid maize plants [2]; CTP B): 25
4X 2,4-D CIPV4 (F1 hybrid maize plants [2]; CTP C): 10
4X 2,4-D CIPV8 (F1 hybrid maize plants [2]; CTP C): 15
8X 2,4-D CIPV4 (F1 hybrid maize plants [2]; CTP C): 10
8X 2,4-D CIPV8 (F1 hybrid maize plants [2]; CTP C): 10
16X 2,4-D CIPV4 (F1 hybrid maize plants [2]; CTP C): 15
16X 2,4-D CIPV8 (F1 hybrid maize plants [2]; CTP C): 20
4X 2,4-D CIPV4 (F1 hybrid maize plants [2]; no CTP): 7.5
4X 2,4-D CIPV8 (F1 hybrid maize plants [2]; no CTP): 7.5
8X 2,4-D CIPV4 (F1 hybrid maize plants [2]; no CTP): 17.5
8X 2,4-D CIPV8 (F1 hybrid maize plants [2]; no CTP): 42.5
16X 2,4-D CIPV4 (F1 hybrid maize plants [2]; no CTP): 25
16X 2,4-D CIPV8 (F1 hybrid maize plants [2]; no CTP): 45
